Assay results taken from the supplement of paper PMC10567573.

B1: NR2F2 (parent)
chain: VAHVESLQEKSQCALEEYVRSQYP

Variants of: B1
Assay: protein stability index of a GFP-peptide fusion (GPS, HEK-293T) (PSI 1-6); higher = more stable
Settings: c terminus: a fixed tail appended
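Also: lentivirally expressed fusions sorted by FACS into six bins by GFP to DsRed ratio, PSI derived from sequencing read proportions per bin multiplied by bin number.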

Q: With VAHVESLQEKSQEALEEYVRSQYP [C13E] as the variant, how does the protein stability index read?
A: 4.91

Q: For VAHVESLQEKSQFALEEYVRSQYP [C13F], which protein stability index is on record?
A: 3.58

Q: For VAHVESLQEKSQAALEEYVRSQYP [C13A], which protein stability index is on record?
A: 4.7

Q: For VAHVESLQEKSQDALEEYVRSQYP [C13D], which protein stability index is on record?
A: 4.36

Q: With VAHVESLQELSQCALEEYVRSQYP [K10L] as the variant, how does the protein stability index read?
A: 3.07

Q: Which protein stability index does the source give for VAHVESLQEPSQCALEEYVRSQYP [K10P] here?
A: 3.37

Q: For VAHVESLQEFSQCALEEYVRSQYP [K10F], which protein stability index is on record?
A: 2.08

Q: With VAHVESLQETSQCALEEYVRSQYP [K10T] as the variant, how does the protein stability index read?
A: 3.92

Q: With VAHVESLQEYSQCALEEYVRSQYP [K10Y] as the variant, how does the protein stability index read?
A: 2.63

Q: With VAHVESLQENSQCALEEYVRSQYP [K10N] as the variant, how does the protein stability index read?
A: 3.98

Q: For VAHVESLQEISQCALEEYVRSQYP [K10I], which protein stability index is on record?
A: 2.58

Q: Which protein stability index does the source give for VAHVESLQESSQCALEEYVRSQYP [K10S] here?
A: 3.76

Q: Which protein stability index does the source give for VAHVESLQEESQCALEEYVRSQYP [K10E] here?
A: 4.48

Q: For VAHVESLQEGSQCALEEYVRSQYP [K10G], which protein stability index is on record?
A: 3.81

Q: Which protein stability index does the source give for VAHVESLQEVSQCALEEYVRSQYP [K10V] here?
A: 3.49

Q: Which protein stability index does the source give for VAHVESLQERSQCALEEYVRSQYP [K10R] here?
A: 4.09

Q: For VAHVESLQEQSQCALEEYVRSQYP [K10Q], which protein stability index is on record?
A: 3.83

Q: For VAHVESLQEWSQCALEEYVRSQYP [K10W], which protein stability index is on record?
A: 2.96

Q: Which protein stability index does the source give for VAHVESLQEDSQCALEEYVRSQYP [K10D] here?
A: 4.32

Q: With VAHVESLQEASQCALEEYVRSQYP [K10A] as the variant, how does the protein stability index read?
A: 3.45

Q: Which protein stability index does the source give for VAHVESLQEMSQCALEEYVRSQYP [K10M] here?
A: 2.97

Q: Which protein stability index does the source give for VAHVESLQECSQCALEEYVRSQYP [K10C] here?
A: 2.54

Q: With VAHVESLQEHSQCALEEYVRSQYP [K10H] as the variant, how does the protein stability index read?
A: 3.7

Q: For VAHVESLQPKSQCALEEYVRSQYP [E9P], which protein stability index is on record?
A: 2.68

Q: Which protein stability index does the source give for VAHVESLQAKSQCALEEYVRSQYP [E9A] here?
A: 2.55

Q: For VAHVESLQTKSQCALEEYVRSQYP [E9T], which protein stability index is on record?
A: 3.11

Q: With VAHVESLQNKSQCALEEYVRSQYP [E9N] as the variant, how does the protein stability index read?
A: 3.05

Q: For VAHVESLQKKSQCALEEYVRSQYP [E9K], which protein stability index is on record?
A: 3.11

Q: For VAHVESLQWKSQCALEEYVRSQYP [E9W], which protein stability index is on record?
A: 2.27

Q: With VAHVESLQFKSQCALEEYVRSQYP [E9F] as the variant, how does the protein stability index read?
A: 2.13

Q: With VAHVESLQRKSQCALEEYVRSQYP [E9R] as the variant, how does the protein stability index read?
A: 2.53

Q: For VAHVESLQYKSQCALEEYVRSQYP [E9Y], which protein stability index is on record?
A: 2.77

Q: For VAHVESLQGKSQCALEEYVRSQYP [E9G], which protein stability index is on record?
A: 2.89

Q: For VAHVESLQCKSQCALEEYVRSQYP [E9C], which protein stability index is on record?
A: 1.85

Q: For VAHVESLQHKSQCALEEYVRSQYP [E9H], which protein stability index is on record?
A: 3.23

Q: For VAHVESLQQKSQCALEEYVRSQYP [E9Q], which protein stability index is on record?
A: 2.62

Q: Which protein stability index does the source give for VAHVESLQIKSQCALEEYVRSQYP [E9I] here?
A: 1.83

Q: With VAHVESLQMKSQCALEEYVRSQYP [E9M] as the variant, how does the protein stability index read?
A: 2.2

Q: With VAHVESLQSKSQCALEEYVRSQYP [E9S] as the variant, how does the protein stability index read?
A: 2.73

Q: With VAHVESLQLKSQCALEEYVRSQYP [E9L] as the variant, how does the protein stability index read?
A: 2.64

Q: With VAHVESLQVKSQCALEEYVRSQYP [E9V] as the variant, how does the protein stability index read?
A: 2.72

Q: For VAHVESLQDKSQCALEEYVRSQYP [E9D], which protein stability index is on record?
A: 3.59

Q: For VAHVESLQEKSNCALEEYVRSQYP [Q12N], which protein stability index is on record?
A: 3.54

Q: For VAHVESLQEKSHCALEEYVRSQYP [Q12H], which protein stability index is on record?
A: 2.88

Q: Which protein stability index does the source give for VAHVESLQEKSMCALEEYVRSQYP [Q12M] here?
A: 2.99

Q: Which protein stability index does the source give for VAHVESLQEKSVCALEEYVRSQYP [Q12V] here?
A: 2.83

Q: With VAHVESLQEKSYCALEEYVRSQYP [Q12Y] as the variant, how does the protein stability index read?
A: 2.55

Q: With VAHVESLQEKSPCALEEYVRSQYP [Q12P] as the variant, how does the protein stability index read?
A: 3.12

Q: Which protein stability index does the source give for VAHVESLQEKSLCALEEYVRSQYP [Q12L] here?
A: 2.68

Q: For VAHVESLQEKSICALEEYVRSQYP [Q12I], which protein stability index is on record?
A: 2.49

Q: For VAHVESLQEKSFCALEEYVRSQYP [Q12F], which protein stability index is on record?
A: 2.86

Q: Which protein stability index does the source give for VAHVESLQEKSGCALEEYVRSQYP [Q12G] here?
A: 3.7

Q: For VAHVESLQEKSRCALEEYVRSQYP [Q12R], which protein stability index is on record?
A: 3.77

Q: Which protein stability index does the source give for VAHVESLQEKSKCALEEYVRSQYP [Q12K] here?
A: 3.76

Q: With VAHVESLQEKSECALEEYVRSQYP [Q12E] as the variant, how does the protein stability index read?
A: 4.6

Q: With VAHVESLQEKSWCALEEYVRSQYP [Q12W] as the variant, how does the protein stability index read?
A: 2.64

Q: For VAHVESLQEKSTCALEEYVRSQYP [Q12T], which protein stability index is on record?
A: 2.88

Q: Which protein stability index does the source give for VAHVESLQEKSACALEEYVRSQYP [Q12A] here?
A: 3.33

Q: For VAHVESLQEKSDCALEEYVRSQYP [Q12D], which protein stability index is on record?
A: 4.32

Q: Which protein stability index does the source give for VAHVESLQEKSSCALEEYVRSQYP [Q12S] here?
A: 2.77

Q: Which protein stability index does the source give for VAHVESLQEKSCCALEEYVRSQYP [Q12C] here?
A: 2.45

Q: For VAHVESLREKSQCALEEYVRSQYP [Q8R], which protein stability index is on record?
A: 3.68

Q: With VAHVESLWEKSQCALEEYVRSQYP [Q8W] as the variant, how does the protein stability index read?
A: 2.27

Q: For VAHVESLGEKSQCALEEYVRSQYP [Q8G], which protein stability index is on record?
A: 3.56

Q: Which protein stability index does the source give for VAHVESLVEKSQCALEEYVRSQYP [Q8V] here?
A: 3.02

Q: With VAHVESLSEKSQCALEEYVRSQYP [Q8S] as the variant, how does the protein stability index read?
A: 3.48

Q: For VAHVESLTEKSQCALEEYVRSQYP [Q8T], which protein stability index is on record?
A: 3.53

Q: Which protein stability index does the source give for VAHVESLMEKSQCALEEYVRSQYP [Q8M] here?
A: 2.98

Q: Which protein stability index does the source give for VAHVESLKEKSQCALEEYVRSQYP [Q8K] here?
A: 3.88

Q: For VAHVESLYEKSQCALEEYVRSQYP [Q8Y], which protein stability index is on record?
A: 2.73

Q: For VAHVESLHEKSQCALEEYVRSQYP [Q8H], which protein stability index is on record?
A: 3.49

Q: With VAHVESLIEKSQCALEEYVRSQYP [Q8I] as the variant, how does the protein stability index read?
A: 2.83

Q: Which protein stability index does the source give for VAHVESLPEKSQCALEEYVRSQYP [Q8P] here?
A: 3.45

Q: With VAHVESLNEKSQCALEEYVRSQYP [Q8N] as the variant, how does the protein stability index read?
A: 3.75

Q: For VAHVESLLEKSQCALEEYVRSQYP [Q8L], which protein stability index is on record?
A: 2.89

Q: With VAHVESLQEKVQCALEEYVRSQYP [S11V] as the variant, how does the protein stability index read?
A: 2.48

Q: For VAHVESLQEKYQCALEEYVRSQYP [S11Y], which protein stability index is on record?
A: 2.36

Q: Which protein stability index does the source give for VAHVESLQEKIQCALEEYVRSQYP [S11I] here?
A: 2.8

Q: For VAHVESLQEKRQCALEEYVRSQYP [S11R], which protein stability index is on record?
A: 3.12

Q: With VAHVESLQEKLQCALEEYVRSQYP [S11L] as the variant, how does the protein stability index read?
A: 3.2

Q: Which protein stability index does the source give for VAHVESLQEKEQCALEEYVRSQYP [S11E] here?
A: 4.36

Q: Which protein stability index does the source give for VAHVESLQEKWQCALEEYVRSQYP [S11W] here?
A: 2.61

Q: Which protein stability index does the source give for VAHVESLQEKKQCALEEYVRSQYP [S11K] here?
A: 3.41

Q: Which protein stability index does the source give for VAHVESLQEKGQCALEEYVRSQYP [S11G] here?
A: 4.07

Q: With VAHVESLQEKCQCALEEYVRSQYP [S11C] as the variant, how does the protein stability index read?
A: 3.37

Q: With VAHVESLQEKNQCALEEYVRSQYP [S11N] as the variant, how does the protein stability index read?
A: 3.88

Q: With VAHVESLQEKMQCALEEYVRSQYP [S11M] as the variant, how does the protein stability index read?
A: 2.54

Q: For VAHVESLQEKPQCALEEYVRSQYP [S11P], which protein stability index is on record?
A: 4.04

Q: For VAHVESLQEKTQCALEEYVRSQYP [S11T], which protein stability index is on record?
A: 3.53

Q: For VAHVESLQEKHQCALEEYVRSQYP [S11H], which protein stability index is on record?
A: 3.59

Q: For VAHVESLQEKFQCALEEYVRSQYP [S11F], which protein stability index is on record?
A: 1.78

Q: Which protein stability index does the source give for VAHVESLQEKQQCALEEYVRSQYP [S11Q] here?
A: 2.97

Q: With VAHVESLQEKAQCALEEYVRSQYP [S11A] as the variant, how does the protein stability index read?
A: 4.05

Q: Which protein stability index does the source give for VAHVESLQEKDQCALEEYVRSQYP [S11D] here?
A: 4.5
